Reference: US7067117 (CAMBRIDGE UNIVERSITY TECHNICAL SERVICES, dated 2006)
Ends that are not written are not given here.

T1: Duffy Antigen Receptor for Chemokines (DARC) (human, UniProt Q16570 1-336)
T1 construct: whole, on cells
T1 sequence (looked up): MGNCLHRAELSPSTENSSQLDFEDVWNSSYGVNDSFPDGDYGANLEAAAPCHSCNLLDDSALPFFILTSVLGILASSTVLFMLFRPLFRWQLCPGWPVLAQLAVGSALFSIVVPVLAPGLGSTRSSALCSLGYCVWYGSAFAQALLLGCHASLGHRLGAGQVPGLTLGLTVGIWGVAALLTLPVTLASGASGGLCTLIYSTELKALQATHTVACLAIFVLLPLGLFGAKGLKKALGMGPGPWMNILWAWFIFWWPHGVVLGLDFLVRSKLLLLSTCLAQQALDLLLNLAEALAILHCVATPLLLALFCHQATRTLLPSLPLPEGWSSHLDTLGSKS

T2: Duffy Antigen Receptor for Chemokines (DARC) (human, UniProt Q16570 1-336)
T2 chain: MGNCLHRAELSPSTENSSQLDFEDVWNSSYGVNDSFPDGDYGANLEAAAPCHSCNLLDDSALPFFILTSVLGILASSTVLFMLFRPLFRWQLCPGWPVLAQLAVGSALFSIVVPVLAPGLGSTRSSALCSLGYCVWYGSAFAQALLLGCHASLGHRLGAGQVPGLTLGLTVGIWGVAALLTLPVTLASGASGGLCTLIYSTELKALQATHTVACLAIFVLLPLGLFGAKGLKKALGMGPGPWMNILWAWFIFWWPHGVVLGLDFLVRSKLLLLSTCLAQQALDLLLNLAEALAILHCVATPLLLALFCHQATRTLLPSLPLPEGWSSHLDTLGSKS


Assays:
[1] = biological target: chemokine receptors on THP-1 cells; test: cell-based or functional assay
[2] = biological target: T1, Duffy Antigen Receptor for Chemokines …; test: estimated ka for binding to red blood cells divided by average inhibitory ED50 (THP-1 migration)
Protocol: Counts associated with the cells are then determined by gamma-counting scintigraphy. […] Furthermore, Scatchard analysis confirms the presence of a single high affinity binding site with 500–1000 copies per cell, consistent with the known properties of DARC.
The DARC specificity ratio is also determined. The DARC specificity ratio is defined as the estimated ka for association with DARC divided by the $ED50$ for biological activity. […] Thus, it may be difficult to achieve biologically active (as a chemokine inhibitor) concentrations of these peptides in vivo without further modifications of the peptide.
Footnotes [a]'CC-specificity' is the average inhibitory ED$50$ versus SDF1 and IL8 divided by average inhibitory ED$50$ versus MCP-1 and MIP1α. [b]'Duffy selectivity' is the estimated ka for binding to red blood cells divided by average inhibitory ED$50$ versus each of the chemokines (except for peptide 2; see footnote d below). [c]'Average ED$50$' is the average inhibitory ED$50$ for inhibition of THP-1 migration induced by each of the chemokines (except for peptide 2; see footnote e below). [d]For the peptide 2 family, the 'average ED$50$' is the estimated ka for binding to THP-1 cells. [e]For the peptide 2 family, the 'Duffy selectivity' is calculated as the ka for binding to red blood cells divided by the ka for binding THP1-1 cells. [f]For tripeptide derivatives so marked, the peptide is highly specific for one of the four exemplary chemokines.

[3] = biological target: T1, Duffy Antigen Receptor for Chemokines …; test: ka for binding to red blood cells divided by ka for binding to THP-1 cells
[4] = biological target: chemokine receptors on THP-1 cells; test: estimated ka for binding to THP-1 cells, printed under 'AVERAGE ED50 (µM)'
[5] = biological target: T2, Duffy Antigen Receptor for Chemokines …; test: DARC binding
[6] = biological target: TGF-beta receptor of THP-1 cells; test: biotinylated peptide binding to THP-1 cells

Binder	ED50 for inhibition of THP-1 migration versus MIP1α [1] [µM]	ED50 for inhibition of THP-1 migration versus IL8 [1] [µM]	ED50 for inhibition of THP-1 migration versus MCP1 [1] [µM]	ED50 for inhibition of THP-1 migration versus SDF1α [1] [µM]	average ED50 for inhibition of THP-1 migration induced by each of the chemokines [1] [µM]	Duffy selectivity [2] [ratio]	further results
SES							% inhibition of migration induced by RANTES at 100 µM tripeptide [1]: 87%
EICADPSEEWVQ (not fully specified, also called Ser7Glu8Glu9pep3) [Ser7Glu8Glu9peptide 3(1-12)[MCP-1]]	2	9	7	5	6	0.59	
ELRVIESGPHCANTEI (also called Pep2[IL8]) [Pep2(1-16)[IL8]]							Duffy selectivity [3]: < 1 ratio; Kd [4]: 1 to 10 µM
EICADPSQKWVQ (Mutant of peptide 3; also called Ser7pep3) [Ser7peptide 3(1-12)[MCP-1]]	6	3	7	4	5	2	
VGPKSCQSSTEFYD							Kd [5]: > 100 µM
EICLDPKQKWVQ [Leu4peptide 3(1-12)[MCP-1]]	7	3	8	3	5		
EICADPKQKWIQ [Ile11peptide 3(1-12)[MCP-1]]	4	2	6	7	5		
KQKWVQ (also called Pep3[7-12]; KQKWVQ) [peptide 3(7-12)[MCP-1]]	5	6	7	6	6	2.94	
HLKILNTPNCALQIV (also called Pep2[SDF1]; Pep2(1-15)[SDF1]) [peptide 2(1-15)[SDF1]]							Kd [5]: 19 µM; Duffy selectivity [3]: < 1 ratio; Kd [4]: 1 to 10 µM
HEPKGYHANFC (also: biotinylated (position not given here)) [Biotinylated T2]							EC50 [6]: 30 µM
SYRRITSK							Kd [5]: 22 µM

The next lines start with results.

ED50 for inhibition of THP-1 migration versus MIP1α [1] [µM]	ED50 for inhibition of THP-1 migration versus IL8 [1] [µM]	ED50 for inhibition of THP-1 migration versus MCP1 [1] [µM]	ED50 for inhibition of THP-1 migration versus SDF1α [1] [µM]	average ED50 for inhibition of THP-1 migration induced by each of the chemokines [1] [µM]	Duffy selectivity [2] [ratio]	Binder	further results
6						SEE	% inhibition of migration induced by MIP1α at 100 µM tripeptide [1]: 65%; ED50 for inhibition of THP-1 migration induced by the one chemokine it is specific for (MIP1α) [1]: 0.8 µM
1	3	2	3	2	37.8	EICLDPKQKWIQ (also called Leu4Ile11pep3; Leu4Ile11peptide 3[MCP-1]) [Leu4Ile11peptide 3(1-12)[MCP-1]]	inhibition of MCP-1 induced migration [1]: 1 µM
